Article PMC4837377

How the values were obtained:
[1] = biological target: T1, PA;PB1 (in PA-PB1-PB2(1-116));PB2(1-116) (Influenza A virus A/Victoria/3/1975(H3N2);Influenza A virus A/Victoria/3/1975(H3N2);Influenza A virus A/Victoria/3/1975(H3N2)) (UniProt P03432+H9XIJ5); assay: filter binding
[2] = biological target: PA;PB1(1-686) (Influenza A virus A/Victoria/3/1975(H3N2);Influenza A virus A/Victoria/3/1975(H3N2)) (UniProt P03432); assay: filter binding
[3] = biological target: T1, PA;PB1 (in PA-PB1-PB2(1-116));PB2(1-116) (Influenza A virus A/Victoria/3/1975(H3N2);Influenza A virus A/Victoria/3/1975(H3N2);Influenza A virus A/Victoria/3/1975(H3N2)); assay: fluorescence anisotropy
[4] = test system: PA;PB1(1-686);RanBP5 (Influenza A virus A/Victoria/3/1975(H3N2);Influenza A virus A/Victoria/3/1975(H3N2);Homo sapiens), P03432+O00410-3; assay: fluorescence anisotropy; details: 5'-monophosphate
Sequence of PA;PB1(1-686);RanBP5 (Influenza A virus A/Victoria/3/1975(H3N2);Influenza A virus A/Victoria/3/1975(H3N2);Homo sapiens), P03432+O00410-3 (O00410 whole entry, looked up, chain 1 of 2): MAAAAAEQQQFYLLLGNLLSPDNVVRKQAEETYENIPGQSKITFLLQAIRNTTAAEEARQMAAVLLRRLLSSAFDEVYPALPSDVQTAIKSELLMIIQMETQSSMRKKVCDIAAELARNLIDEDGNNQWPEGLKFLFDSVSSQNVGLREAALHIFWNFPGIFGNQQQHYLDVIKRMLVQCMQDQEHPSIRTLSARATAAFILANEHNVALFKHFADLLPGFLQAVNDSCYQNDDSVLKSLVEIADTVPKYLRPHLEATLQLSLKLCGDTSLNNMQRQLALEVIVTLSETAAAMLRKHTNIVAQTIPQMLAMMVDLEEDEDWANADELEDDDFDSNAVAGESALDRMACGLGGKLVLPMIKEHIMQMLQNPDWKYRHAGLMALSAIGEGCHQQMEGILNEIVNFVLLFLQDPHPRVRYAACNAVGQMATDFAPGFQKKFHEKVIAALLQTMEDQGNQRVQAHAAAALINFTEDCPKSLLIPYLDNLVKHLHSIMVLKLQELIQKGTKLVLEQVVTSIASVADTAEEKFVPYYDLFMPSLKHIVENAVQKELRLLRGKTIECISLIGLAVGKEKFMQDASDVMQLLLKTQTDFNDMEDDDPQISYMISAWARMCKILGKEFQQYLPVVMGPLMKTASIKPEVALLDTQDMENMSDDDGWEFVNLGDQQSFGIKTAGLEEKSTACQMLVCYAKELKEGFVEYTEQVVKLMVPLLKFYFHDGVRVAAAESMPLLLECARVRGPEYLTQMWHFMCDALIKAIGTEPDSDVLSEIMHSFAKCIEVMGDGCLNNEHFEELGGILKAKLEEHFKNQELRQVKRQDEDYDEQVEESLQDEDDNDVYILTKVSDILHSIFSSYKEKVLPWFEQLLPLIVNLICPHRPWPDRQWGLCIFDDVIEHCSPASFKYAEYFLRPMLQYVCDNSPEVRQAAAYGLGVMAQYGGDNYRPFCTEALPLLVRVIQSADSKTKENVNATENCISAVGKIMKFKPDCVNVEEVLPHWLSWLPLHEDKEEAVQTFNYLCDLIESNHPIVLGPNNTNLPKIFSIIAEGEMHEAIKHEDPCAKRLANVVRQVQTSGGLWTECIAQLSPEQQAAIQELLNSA
Sequence of PA;PB1(1-686);RanBP5 (Influenza A virus A/Victoria/3/1975(H3N2);Influenza A virus A/Victoria/3/1975(H3N2);Homo sapiens), P03432+O00410-3 (P03432 whole entry, looked up, chain 2 of 2): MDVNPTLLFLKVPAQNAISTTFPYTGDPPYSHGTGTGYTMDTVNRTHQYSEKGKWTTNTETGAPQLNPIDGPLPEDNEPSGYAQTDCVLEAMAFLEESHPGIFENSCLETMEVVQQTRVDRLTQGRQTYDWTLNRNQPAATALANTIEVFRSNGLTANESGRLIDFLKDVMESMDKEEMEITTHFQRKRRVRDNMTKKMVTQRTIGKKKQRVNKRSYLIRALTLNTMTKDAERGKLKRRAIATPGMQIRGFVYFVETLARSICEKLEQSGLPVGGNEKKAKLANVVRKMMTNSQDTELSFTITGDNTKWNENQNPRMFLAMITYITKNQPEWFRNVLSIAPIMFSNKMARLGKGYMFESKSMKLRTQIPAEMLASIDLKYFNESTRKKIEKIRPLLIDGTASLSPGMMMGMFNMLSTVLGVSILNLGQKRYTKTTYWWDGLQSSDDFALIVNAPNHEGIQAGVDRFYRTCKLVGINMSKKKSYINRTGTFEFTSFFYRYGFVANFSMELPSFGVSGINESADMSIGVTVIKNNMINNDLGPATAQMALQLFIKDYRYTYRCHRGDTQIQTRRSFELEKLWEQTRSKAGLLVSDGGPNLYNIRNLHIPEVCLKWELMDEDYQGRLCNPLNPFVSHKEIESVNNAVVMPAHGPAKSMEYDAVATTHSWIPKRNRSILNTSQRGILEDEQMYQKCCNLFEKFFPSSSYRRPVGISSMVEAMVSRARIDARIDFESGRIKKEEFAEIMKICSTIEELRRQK

[5] = biological target: PA;PB1(1-686) (Influenza A virus A/Victoria/3/1975(H3N2);Influenza A virus A/Victoria/3/1975(H3N2)) (UniProt P03432); assay: fluorescence anisotropy; details: 5'-monophosphate
[6] = test system: NP; assay: fluorescence anisotropy; details: 5'-monophosphate

T1 sequence (P03432 whole entry, looked up, chain 2 of 2, other chains not shown): as the sequence (P03432 whole entry, looked up, chain 2 of 2) above
Sequence of PA;PB1(1-686) (Influenza A virus A/Victoria/3/1975(H3N2);Influenza A virus A/Victoria/3/1975(H3N2)) (P03432 whole entry, looked up): as the sequence (P03432 whole entry, looked up, chain 2 of 2) above

Sequence: AGUAGAAACAAGGGUA [5'-vRNAp (32P)]
- Kd [1]: 0.19 nM
- Kd [2]: 0.38 nM

Sequence: AUACCCUGCUUUUGCU [3'-vRNAp (32P)]
- Kd [1]: 17 nM

Sequence: AUACCCUGCUUUUGCU [3'-vRNAp]
- Kd [3]: 36 nM

Sequence: AGUAGAAACAAGGGUA [5'-vRNAp]
- Kd [4]: > 1000 nM
- Kd ([3]; 5'-monophosphate): 0.83 nM
- Kd [5]: 0.87 nM

Sequence: UCUCUCUCUCUCUCUCUC [polyUC]
- Kd ([3]; 5'-monophosphate): > 1000 nM
- Kd [6]: 29 nM
